Experimental data taken from US20160039921A1 (published 2016).

Biological target: T1, recombinant human VEGF165 protein (human, UniProt P15692 27-191)
T1 chain: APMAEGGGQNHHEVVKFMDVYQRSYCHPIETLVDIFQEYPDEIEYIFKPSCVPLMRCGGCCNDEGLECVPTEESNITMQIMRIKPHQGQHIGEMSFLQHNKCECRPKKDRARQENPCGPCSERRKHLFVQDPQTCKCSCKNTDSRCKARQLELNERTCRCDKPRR
Assay: competitive ELISA (blocking of biotin-VEGF binding to VEGFR1)

- IC50: < 1 nM
B1: murine PV19 monoclonal antibody (antibody, V domains shown)
VH: QPGGAFWMCVSGGKVTISCKASGYSFTNSGINWVKQAPGKGLKWMGWINTYTGEPTYADDFKGRFAFSLETSASSAYLQINNLKNEDTATYFCARFGDGYYWFFDVWGAGTTVTVS
VL: DIVMSQSPSSLAVSAGEKVTLSCKSSQSLLNSRTRKNFLAWYQQKPGQSPKLLIYWASTRESGVPDRFTGSGSGTDFTLTISSVQAEDLAVYYCKQSYNLYTFGGGPT
